Consider 36 sequences from the supplement of paper PMC10567573.

± gives the standard deviation.

The nature of the series: protein stability index of a GFP-peptide fusion (GPS, HEK-293T) (PSI 1-6); higher = more stable. The settings on record: c terminus: a fixed tail appended.
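Note: 24-mer peptide tiles fused after GFP, lentivirally expressed, FACS-sorted into six equal bins by GFP/DsRed ratio, decoded by Illumina sequencing, PSI is the read-weighted mean bin number.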

Regarding AQLRDAVQSLQLSPRTRGSWSQPQ [RASAL3], the protein stability index by setting is: (treatment: DMSO) 3.65 ± 0.15; (treatment: MLN4924 1 uM, 8 h) 3.6 ± 0.35.
For ARRDAKKLVRSPSGLRMVPEHRAF [ZFYVE21], in that order: 3.11 ± 0.31 and 3.56 ± 0.17.
In the same order, the values of ARSPSGPSGSLENGTKADGKDAKT [TRIM29] are 5.4 ± 0.19 and 5.54 ± 0.094.
For ARTCAKQNINAPAPATTSSWEVVR [C22orf31], in that order: 3.04 ± 0.4 and 3.22 ± 0.32.
Consider ARYGHLDVVEYLVDRCGASVEAGG [FEM1A], for which the protein stability index was 2.81 ± 0.16 (treatment: DMSO) and 2.98 ± 0.43 (treatment: MLN4924 1 uM, 8 h).
Take ASGLGLEITTQFLIYASYFALIAV [SLC19A2]: the protein stability index by setting is: (treatment: DMSO) 3.26 ± 0.26; (treatment: MLN4924 1 uM, 8 h) 3.13 ± 0.47.
Take ASGQGPMCNVKAPLGSPSPRPRRA [ADAMTS4]: the protein stability index runs as follows: (treatment: DMSO) 4.88 ± 0.29; (treatment: MLN4924 1 uM, 8 h) 5.13 ± 0.15.
On to ASKDPREVREARDHKEPKEEINKN [EHMT1], for which the protein stability index (treatment: DMSO) turned out to be 5.5 ± 0.2 and the protein stability index (treatment: MLN4924 1 uM, 8 h) was 5.66 ± 0.29.
For ASNRIIGAKDHASIQMNVAEVSWE [RPS21], in that order: 3.63 ± 0.44 and 3.63 ± 1.4.
On to ATGMFLQYTVPGTEGVTQLKLTVV [ZFYVE21], for which the protein stability index stood at 3.29 ± 0.56 (treatment: DMSO) and 2.9 ± 0.46 (treatment: MLN4924 1 uM, 8 h).
ATGPMGMRGFKGDRGPKGEKGEKG [SCARA5] registered a protein stability index (treatment: DMSO) of 5.22 ± 0.24 and a protein stability index (treatment: MLN4924 1 uM, 8 h) of 5.43 ± 0.34.
For ATPEQGLSAFYLSYFDMLYPEDSS [SPDEF], in that order: 2.75 ± 0.48 and 2.8 ± 0.41.
Regarding ATYRSLLEGQDAKMIGFPSSAGSV [KRT13], the protein stability index is, setting by setting: (treatment: DMSO) 3.22 ± 0.4; (treatment: MLN4924 1 uM, 8 h) 3.54 ± 0.24.
Take AVNLIESGACGAFVHGLEDEMYEV [INTS4]: the protein stability index reads like this: (treatment: DMSO) 3.41 ± 0.24; (treatment: MLN4924 1 uM, 8 h) 3.45 ± 0.33.
AVPTDEARAFAEKNGLSFIETSAL [RAB11A] gave a protein stability index (treatment: DMSO) of 2.9 ± 0.34 and a protein stability index (treatment: MLN4924 1 uM, 8 h) of 3.37 ± 0.52.
For AVVQLYLALPPGAEHWTKEHCGAV [WAS], in that order: 3.03 ± 0.59 and 2.71 ± 0.31.
For AVVVLDQGSRHWQKLREESAARVV [DUSP5], in that order: 2.85 ± 0.34 and 2.72 ± 0.23.
With AWPFYKPVDAEALELHDYHDIIKH [BRD3], the protein stability index stood at 3.04 ± 0.17 (treatment: DMSO) and 3.24 ± 0.35 (treatment: MLN4924 1 uM, 8 h).
Take AYRGNCKDVSRCVAERKYTQEQAR [SMOC2]: the protein stability index reads like this: (treatment: DMSO) 3.06 ± 0.19; (treatment: MLN4924 1 uM, 8 h) 3.38 ± 0.46.
On to CCPTSREAAVEALELLGATYVDKK [FEM1A], for which the protein stability index reads like this: (treatment: DMSO) 4.28 ± 0.06; (treatment: MLN4924 1 uM, 8 h) 4.3 ± 0.049.
For CETVTCCLFSERDAAGAPRDASDP [SMAD6], in that order: 4.49 ± 0.25 and 4.62 ± 0.12.
In the same order, the values of CFKGELPLRAVHINLEEKEKQIRS [PLEKHN1] are 3.95 ± 0.18 and 3.96 ± 0.33.
As for CGSFQVTTGLQVPSAVRCLQKRGS [FSD1], the protein stability index runs as follows: (treatment: DMSO) 2.96 ± 0.2; (treatment: MLN4924 1 uM, 8 h) 2.8 ± 0.17.
Take CHEDVEALAAIYEEKEAWYREESD [DAPK3]: the protein stability index by setting is: (treatment: DMSO) 5.1 ± 0.22; (treatment: MLN4924 1 uM, 8 h) 5.12 ± 0.62.
For CKDSESNKHLCYVFDSEKCVSIPD [GULP1], in that order: 3.27 ± 0.11 and 3.41 ± 0.35.
For CLGQLNLEQRSESVRRTRSKIGFG [SMAD6], the protein stability index reads like this: (treatment: DMSO) 3.06 ± 0.25; (treatment: MLN4924 1 uM, 8 h) 3.1 ± 0.35.
For the sequence CLMIAAYKGHTDVVRYLLEQRADP [FEM1B], the protein stability index (treatment: DMSO) came out at 2.27 ± 0.14 and the protein stability index (treatment: MLN4924 1 uM, 8 h) is 2.35 ± 0.17.
For CLRKYGNANVWKYFTDLFDYLPLT [PPP2CA], the protein stability index by setting is: (treatment: DMSO) 2.4 ± 0.57; (treatment: MLN4924 1 uM, 8 h) 2 ± 0.31.
In the same order, the values of CMYEHGEDTHQSPEPEDEPGGPGA [RSPH3] are 5.42 ± 0.29 and 5.51 ± 0.17.
For CPTEPPDDSCQDQPGTNCALAIKV [ADAMTSL2], in that order: 4.95 ± 0.31 and 5.03 ± 0.41.
For CTWSIFQSIEYAGQQDQVKLHDFF [PPEF2], the protein stability index reads like this: (treatment: DMSO) 2.54 ± 0.62; (treatment: MLN4924 1 uM, 8 h) 2.37 ± 0.46.
For CVATTGDITVSVSTSFLPELSSVH [FBXO3], in that order: 2.23 ± 0.27 and 2.14 ± 0.23.
For CVDRQEVAEITKQLPPVVPVSKPG [TCAP], in that order: 4.7 ± 0.2 and 4.63 ± 0.15.
For CWDMQGKRFVAMKVVKSAQHYTET [SRPK2], in that order: 2.34 ± 0.34 and 2.54 ± 0.3.
As for DAETSKLIYDFIEDQGGLEAVRQE [WAS], the protein stability index stood at 4.61 ± 0.24 (treatment: DMSO) and 4.76 ± 0.28 (treatment: MLN4924 1 uM, 8 h).
For DAPEQRLRVMTTNIRSARGNNPNG [ELOA2], in that order: 4.84 ± 0.23 and 4.95 ± 0.23.
